{"source": "the DeepSol protein solubility set"}
{"assay": "soluble on expression in E. coli; label from the status in PepcDB or PDB records"}
{"sequence": "MNKKHVVILGAGYAGLKTLRELQKGAKDVEITLVDRNNYHYEATDLHEVAAGTQPAEKITYNIMDVVDEKMTTFIQGTVKTIDAATQTVALEDGQTINYDYLVVSLGFESESFGIPGVQEHALQMVDVKTALNVYEHIQEQMRQYKATQNEEFLKIVVCGAGFTGIELLGSLVENKPKFAEIAGVSADQIQIYCVEAVTRLLPMFNEKLANYGVQLLKDSAIHLLLGKPIKEIKPGAVVYQDNEAGDLAELSAKTIIWTTGVSGSHVVGDSGFEARRGRVMVQPDLTDANHSNVYIIGDCSAVMDTETNRPYPTTAQIALKMGAHAAKNIQAQLKGEATKPFSFKSQGSVCSVGNTRALGIVGKTDIKGYPASFMKKIIMNKALFETGGTKEMMAKGRFDLYH", "soluble on expression in E. coli": "not soluble"}
{"sequence": "MNKLLTSKSEIIERKIRYDSTTVEHTCLLLEKQLRSIVLFHEVQYSFTMNTHDSSLTIPKGSYTIAYYWEDRPYNLYIWRDKDGMYVGSYFNVVKNTQITDELVSFEDLIIDILVLPSGEYFILDEDELPESLEEFEDGYVNEALHVLEEIIQKTLPQMIVETERVRLN", "soluble on expression in E. coli": "not soluble"}
{"sequence": "MNKQRFVVIDVETTGNSPKKGDKIIQIAAVVIENGQITERFSKYINPNKSIPAFIEQLTGISNQMVENEQPFEAVAEEVFQLLDGAYFVAHNIHFDLGFVKYELHKAGFQLPDCEVLDTVELSRIVFPGFEGYKLTELSEELQLRHDQPHRADSDAEVTGLIFLEILEKLRQLPYPTLKQLRRLSQHFISDLTHLLDMFINENRHTEIPGYTRFSSFSVREPEAIDVRINEDENFSFEIESWEAGNEKALSELMPGYEKRDGQMMMMREVADAFANREHALIEAPPGIGKTIGYLIPAALFAKKSKKPVIISTYSTLLQQQILTKDLPIVQDLFPFPVTAAILKGQSHYLCLYKFEQVLHEEDDNYDAVLTKAQLLVWLTETNTGDVAELNLPSGGKLLWDRLAYDDDSYKRSRSEHVIGFYERAKQIAMRSDLVITNHSLLLTDEGSHKKRLPESGTFIIDEAHHFERAASEHLGKRATYIELHTKLSRIGTLKEQGLLKKMRQLFQRNSLPVDSFFELEEWLQHVQAESDAFFSSVHSFVKRRKPKEDLNRLVFKVNKESQDKSWSILTDGAERLCSMLTHLQQLFEAQSSLMEKHLKGMKSKTVFLADEYQRSMKGLQHYCQTLQKLFFGSDDDEAVWIEIDAKGAKNAVAIYAQPLEPGELLADQFFARKNSVVLTSATLTVEGSFQFMIERLGLSDFFPRTMRIESPFSYDERMQVMIPKEMKSIQDTGQPEFIQDTARYIELMAKEKQPKILVLFTSHDMLKKVHQELKHNMSASGIQLLAQGITGGSPGKLMKTFKTSNQAILLGTNHFWEGVDFPGDELTTVMIVRLPFRSPDHPLHAAKCELARKKGKNPFQTVSLPEAVLTFRQGIGRLLRSAGDKGTIIILDRRIKTAGYGRLFLDALPTTSVSEMTDSELEAY", "soluble on expression in E. coli": "not soluble"}
{"sequence": "MNLEPPKAEIRSATRVMGGPVTPRKGPPKFKQRQTRQFKSKPPKKGVQGFGDDIPGMEGLGTDITVICPWEAFNHLELHELAQYGII", "soluble on expression in E. coli": "soluble"}
{"sequence": "MNLNTPVEIPSGFTPISHAQQLLIMGSCFAENIGTLLAENKFRIDINPFGILYNPRSISMALREIISQKQYKASDLFLHRECWHSPMHHGSFSAATLADTLRNIQSRVEQAHKELKQLDRLMLTFGTAYVYEQKETGKVVANCHKLPEKNFIRRRLEIDEIVEDYTLLLDELISLNPQLKILFTVSPIRHIRDGMHANQLSKSVLLLAIDRLMQRYPQVTCYFPSYEIVLDELRDYRFYADDMVHPSTLTVNYLWERFSETFFTPETQSLIKECET", "soluble on expression in E. coli": "soluble"}
{"sequence": "MNLSFKIFDISNTQRSKAKKVQGKKYEIFLNENEHSLITPKVSFKEILRYYYLYPKNAIPSFKLPFFKPDLSGFSTPHITWLGHSSLFISFKEYKILIDPIFNTHASPISFINKAFKNAPVYNINDFNEIFAVIITHSHFDHLDAKSVKALKDKAKFFITPLKVGNYLKSYGVSEKKIIELDWWSGIEFGDLKIMATPAQHSSSRGDGKNKTLWASFVMEFLSVDKRVFFSADGGYFTHFKKIGEYFGSFDLACLESGQFNIAWPYSHSFPEQILKEAKDLNAKAVMPIHWGRFLAGTHAWNEVVKFLYENLDLPLITPKMGEAYEVGAKFKQDFWWKEELEHHHHHH", "soluble on expression in E. coli": "not soluble"}
{"sequence": "MNLSNHFLIAMPDMEDAFFSQSVVYICKHDEDGALGIAINKPSPITMDMIFSATGKNIPMRMQHDSVMMGGPVQVERGYVVHTPIGNWQSSIGVSDNIALTSSRDVIENISREGAVDKALISIGYSSWSKGQLERELADNAWLTVPADEHILFDIPYEHRYAAAFAKLGIDPLALFSGAGHA", "soluble on expression in E. coli": "not soluble"}
{"sequence": "MNLSTKQKQHLKGLAHPLKPVVLLGSNGLTEGVLAEIEQALEHHELIKVKIATEDRETKTLIVEAIVRETGACNVQVIGKTLVLYRPTKERKISLPR", "soluble on expression in E. coli": "not soluble"}
{"sequence": "MNMLEKIQSQLEHLSKSERKVAEVILASPDNAIHSSIAALALEANVSEPTVNRFCRSMDTRGFPDFKLHLAQSLANGTPYVNRNVNEDDSVESYTGKIFESAMATLDHVRHSLD", "soluble on expression in E. coli": "not soluble"}
{"sequence": "MNNELPDDIELLKAMLRKQQSRLRQYACQVAGYEQEIERLKAQLDRLRRMLFGQSSEKKRHKLENQIRQAEKRLSELENRLNTARNLLEDASSVTDSPDTSPPSENPIASKPESPGRKSSRKPLPAELPRETHRLLPAETSCPACGGVLKEMGETISEQLDIINTAFKVIETIRPKLACSRCDVIGTTSS", "soluble on expression in E. coli": "not soluble"}
{"sequence": "MNNFKLHTPTRILFGKGAIVDLRDQIPQDARVLITYGGGSVKKTGVLAQVQEALKGLDVREFGGIEPNPSYETLMKAVQLVRDENITFLLAVGGGSVLDGTKFIAAAAQYTDGVDPWHILETGGTEIRSAIPMGSVLTLPATGSESNAGAVISRKTTGDKQAFHSSFVQPVFAVLDPVYTYTLPPRQVANGVVDAFVHTVEQYVTYPVNGKIQDRFAEGILLTLIEEGPKALQEPENYDVRANVMWAATQALNGLIGAGVPQDWATHMLGHELTAMHGLDHAQTLAIVLPALWNEKRDVKRAKLLQYAERVWNITDGSDDERIDAAIAATRRFFEQMGVPTHLSDYGLDGSTIPALLAKLEAHGCINLGENQDITLDVSRRIYEAAR", "soluble on expression in E. coli": "not soluble"}
{"sequence": "MNNIGVPAREVDVVVTGAGQAGLSSAFHLRRTGFEPERDFVVLDHAPRPGGAWQFRWPSLTYRKVHGMHALPGMELTDADPSRPSSEVIAEYFDTYERTFDLRVRRPVDVTAVREGEGGRLLVQTSDGTWATRALINATGTWDRPFWPRYPGQESFRGRQLHTAQYPGPEEFAGQRVVVVGGGASGTQHLMEIAPYAASTTWVTRRPPVFREGPFSEDVGRAAVAMVEERVRRGLPPRSVVSVTGLPLNDAVRRAIADGVLDRLPVFDRITPDGVEWDDGRRVAADVILWATGFRAAIDHLAPLRLRAPGGGIRVEGTRVVADPRIHLVGYGPSASTIGANRAGRAAVRDIRRLLAGEPLTVLEHHHHHH", "soluble on expression in E. coli": "soluble"}
{"sequence": "MNNKLVRSLKYNDVYGELYSYENSSALTVIFPGINYGHEKPLLYYARKAAAQNNIDILCINYKNKISWEDIGKQSIEDVAIEIKGIIKNVIEKKYDNIYFLGKSVGTEIAGCTSSKLNIDNIKFLYLTPIEETLKYIVDRKCIVVSGTKDEFFKSECINKIRENKNVKLMLFEGANHSLEIKDDIIRSLRILDNVAQLYLDFFK", "soluble on expression in E. coli": "not soluble"}
{"sequence": "MNNNNKAKTLITQLEQEINWVEELNTLLSEEKEILSTSQFNQLETLAEKKQELSTKLEASAKQRVDLIKESNPGDKPHGLLLSDFLKNCATEDGIQINHLNNTLAERLNLCRELNTINGQVIANNMYTRQQIVNALSGNKSDAVSVYTSNGNLETPSESSHHEEA", "soluble on expression in E. coli": "soluble"}
{"sequence": "MNNSNENDVILAWWDWGHFITYYARRSPIAQGGPSVGVALYLLGKLNENWAINLGVDYVIVSYYDFLKFGAILSTANLSKRYNIRGYGLVVLPLRASTGALIFENRGYRAIVRHDKSWNAVIIYNGQMIYPRKLYVEHKEGVQEIKPPESNSNTYLYVNLNYGLEHHHHHH", "soluble on expression in E. coli": "not soluble"}
{"sequence": "MNNSSNADSQEGSTSAQKQKTANPSESRPFVLKKWNALAVWAWDVECDTCAICRVHLMEECLRCQSEPSAECYVVWGDCNHSFHHCCMTQWIRQNNRCPLCQKDWVVSRTSK", "soluble on expression in E. coli": "not soluble"}
{"sequence": "MNNTVIACVDGSPSTRPVCEYAAWAAGKLGAPLALLHVLEKSETPAVSDLTGSIGIDSREQLTEALVRVEGERSRLLMAQGKAVLAGCAELLKQTGQPDAQLLQKHGALDEILAELGEVRLMVLGRRGTQNQVGSHLESVIRLQKNPVLIVPETFTPPARVMFAYDGSSESRKNLTRLTVSPLLHGLSCHIVMVNGDMSALQDAQAVLQEAGITTETRLLEDESVTGALCRYADAHDIDLTVMGACGHSRLRRFFIGSHTTEMLSESRQPLLMLR", "soluble on expression in E. coli": "not soluble"}
{"sequence": "MNNVFVYCEIEGTTVADVSLELLTKGRKLANQLGCQLEAIAAGTGLAGIEKQVLPYGVDKLHVFDAPGLFPYTSLPHTSILVNLFKEEKPQICLMGATVIGRDLGPRVSSALTSGLTADCTQLEIGTHEDKKNGITYENLLYQIRPAFGGNIVATIVNPEHRPQMATVREGVMKKEILDENYKGEVVNHDVAKFVPETDYVV", "soluble on expression in E. coli": "not soluble"}
{"sequence": "MNPFDMLSPGYQDIWLRLQSERLLLEKRISAKEGELKNLMQFVQNPPFLNFPQYMLPQGPLGAQNQ", "soluble on expression in E. coli": "not soluble"}
{"sequence": "MNPITNIKNQNRMNERELSLGYAGDLKKSWHQTYKDSAWIYIGGLSYALSEGDVIAVFSQYGEVMNINLIRDKDTGKSKGFAFLCYKDQRSTILAVDNFNGISLHKRMIRVDHVEEYKVPKYKEDADDETKRLWEEGCAPKPVMREAAPMEVQEQRIKKAKEVLLDIGDVDEELLKKIKKDKKKAKKEKKREKKRAKKIRKLEKKAARDPDGDWNNKAKLIDKVVAEDDLYGENKHFDFGKKKEVEEVKHNPRPDFEKADWRDIEIWKVIREREKAEKAARGETSEAWGPEDHYVSKRYQGR", "soluble on expression in E. coli": "not soluble"}
{"sequence": "MNPLSIVIITLNEENRIGRLLEDLTEQTFKNFEVIVVDSNSSDATCEVAQSFSASIPDLTVHKMDKQGVSLGRNTGASLAKHERLLFLDADVRLSPDFLTKALTQLNEKGLEVAGVYMGSKGLPVAHKLGYMTFNIGLFLTQFAFPTAVGACIFSTRRAHKDLLGFDENITLCEDCDYVKRASRTWRFRFLPMTFEFDPRRLEQDGFLRMGYTYLKANVRRFLFGEMRNNEMEYKFGHYSNQKLEHHHHHH", "soluble on expression in E. coli": "soluble"}
{"sequence": "MNPQRGILFACLLVVVTNRGATAQHARPPVGVTGDVTGARIDPPSDKCENPSVNIATTEAPKIVTTAEPAANSTKPAQPNSATGPVVLLTIVAVTMN", "soluble on expression in E. coli": "not soluble"}
{"sequence": "MNPTDWIDTGAVPPRPLPATVDAALAYLSEALGHPVYAHWTLARVKRRYGSLSDAKAAQPTVLKLLLAHDGAVEYWERGRLRTVPADQAPGPAMVLARLLHTHRRRFRLAASSGNAAAVPAASEAAGLVAAPWLAAYSHAEHTWLARAGRFAQLHAATNTLGVANDAQALALFLRDRTGRSPHTLRAYGAELRRLMRWCGVHEVGPLSDLTRQQLLAYRHTLQHGEPGTENASPQLSEATCTRALAVVASLYGYWYDTGYLQANPAAGLSAGSRARAGFAPTRLIPPALLDACDAWLDASAVDASLPALRRRAIWALYRYAGARLAELVWSDEAALPRLEAEVPGHWTLYVCGKGRKVRAIPLPVPCVAVLRAYRHARGLPPEPPAHEALPVIHGHKGEALQSAGLYREVKAIFAAVADGLQARDPAQALLLRAASPHWLRHAYARTLVVDHQVPLPAAQALLGHASVQTTAAYARTDLTQLRAFVDATFADDAPLEHHHHHH", "soluble on expression in E. coli": "not soluble"}
